We go through two substances from article PMC11940548.

The term stoichiometry N denotes the number of molecules, sites or subunits per partner or assembly.

Assay [1] deals with MotA1 from Paenibacillus sp. TCA20 (Paenibacillus sp. TCA20). The assay is described as follows: cryo-EM structure; co-expressed chimeric MotA1/MotB1-His6 complex, solubilised in LMNG, purified by Ni-affinity and SEC, reconstituted into peptidisc; 20 mM Tris-HCl pH 8.0, 100 mM NaCl; single particle analysis, three classes (3.3, 3.3 and 3.5 Å).
The target of assay [2] is chimeric MotB1 (N-terminal transmembrane domain of Paenibacillus sp. TCA20 MotB1 joined to the C-terminal periplasmic domain of E. coli MotB) (Paenibacillus sp. TCA20 | E. coli) (UniProt P0AF06). Described as above.

“MotA1 from Paenibacillus sp. TCA20 (natural protein)”: the stoichiometry N in assay [1] was 5. “chimeric MotB1 (N-terminal transmembrane domain of Paenibacillus sp. TCA20 MotB1 joined to the C-terminal periplasmic domain of E. coli MotB) (from UniProt P0AF06 104-302)”: the stoichiometry N in assay [2] amounted to 2.
